{
  "source": "patent US20210009982",
  "biological_target": "T1, mini cellulose-binding protein A (mCbpA), P38058",
  "T1 chain": "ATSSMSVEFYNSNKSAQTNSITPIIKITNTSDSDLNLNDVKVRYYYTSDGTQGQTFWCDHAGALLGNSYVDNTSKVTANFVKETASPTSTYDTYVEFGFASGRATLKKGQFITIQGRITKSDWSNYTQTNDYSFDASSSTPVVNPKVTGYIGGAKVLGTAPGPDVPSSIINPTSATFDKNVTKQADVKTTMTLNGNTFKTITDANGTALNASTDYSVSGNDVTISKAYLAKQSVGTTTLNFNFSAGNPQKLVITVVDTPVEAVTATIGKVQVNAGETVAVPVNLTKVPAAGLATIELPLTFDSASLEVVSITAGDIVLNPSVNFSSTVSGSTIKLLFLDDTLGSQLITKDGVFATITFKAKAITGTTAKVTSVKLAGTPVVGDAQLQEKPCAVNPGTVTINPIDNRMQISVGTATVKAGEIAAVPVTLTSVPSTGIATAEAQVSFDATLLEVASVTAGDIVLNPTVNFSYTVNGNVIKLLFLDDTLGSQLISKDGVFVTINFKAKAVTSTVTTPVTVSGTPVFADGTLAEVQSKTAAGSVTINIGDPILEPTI",
  "data": [
    {"protein": "arabinose isomerase (LsAraA) linked with the dockerin module of the endo-β-1,4-glucanase B gene (protein) SLSARVSFKKHVKKGVFIMLNTENYEFWFVTGSQSLYGEETLRSVEKDAKEIVEKLNASRQLPYPIVFKLVATTADNITKVMKEANYNDHVAGVITWMHTFSPAKNWIRGTKLLQKPLLHLATQFLNKIPYDTIDFDYMNLNQSAHGDREYAFINARLRKNNKIISGYWGDEDVQKAMAKWMDVAVAYNESFKIKVVTFADKMRNVAVTDGDKVEAQIKFGWTVDYWGVGDLVAEVNAVSEADIDAKYADLQKEYDFVEGQNTPEKFEHNVKYQIREYFGLKKFMDDRGYTAFTTNFEDLVGLEQLPGLAAQLLMAEGYGFAGEGDWKTAALDRLLKIMAHNEKTVFMEDYTLDLRQGHEAILGSHMLEVDPSIASDKPRVEVHPLDIGDKDDPARLVFTGMQGDAVDVTMADYGDEFKLMSYDVRGNKPEADTPHLPVAKQLWTPKQGLREGAVGWLTVGGGHHTVLSFAVDSEQLQDLSHLFDLTYVNIKTQTQTSYSLGDVNKDGKVNAIDYAVLKSILLGTNTNVDLSVSDMNKDGKVNALDLAVLKKMLLS", "values": [
      {"measurement": "tagatose conversion activity using galactose as a substrate", "value": "the degradation activity was increased in the order of mCbpA (M), arabinose isomerase (LsAraA, L) and arabinose isomerase-mCbpA (LM)"}
    ]}
  ]
}
